Reference: the supplement of paper PMC12042874
± gives the uncertainty stated by the source.

assay: amyloid nucleation score (Sup35N fusion, yeast selection) (log enrichment); library NNK2; higher = more nucleation; inactive = no reads after selection
Summary of the method: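 For the nucleation score, DiMSum gave the log enrichment of output over input reads, centred on the mode score of non-aggregating sequences. Psi-negative yeast expressing Sup35N fused to peptides of 20 random codons were induced with 100 μM copper sulfate for 24 hours and grown 7 days at 30°C on medium lacking adenine and uracil. Input and output plasmid inserts were Illumina-sequenced, and sequences with under 100 input reads were excluded.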

For IVFFVSWLIKCKPWFLVVNM, the amyloid nucleation score was “inactive”.
In the case of YSCQFFCSVLLCLYVSHITN, the amyloid nucleation score is reported as “inactive”.
With ARCMGFLSGGIHYRYLTAQM the amyloid nucleation score was “inactive”.
For NFSNVFWKFISRWLTAF, the amyloid nucleation score was “inactive”.
With YACFRPFSDTRRRCGFSTL the amyloid nucleation score was “inactive”.
In the case of IQGFGLKLVEIYWEARQLVH, the amyloid nucleation score is reported as “inactive”.
With VSGSSHVVKWVMKEGVIFI the amyloid nucleation score was “inactive”.
In the case of RAFYLVTSPDFYFCRILGAT, the amyloid nucleation score is reported as “inactive”.
With KYYRQSCQDRPILFDVALYY the amyloid nucleation score was “inactive”.
With QIFSECRTYDFVLPGYMGYY the amyloid nucleation score was “inactive”.
In the case of DWGGVLCATVG, the amyloid nucleation score is reported as “inactive”.

FICYNTRRVVCIYLRL and LSHPVIGGETKFPDDRNSQF are within error of each other in amyloid nucleation score: 0.456 ± 0.74 for the first, 0.119 ± 0.19 for the second.

EVVLFF and LSSKCYVA are within error of each other in amyloid nucleation score: -1.35 ± 0.62 for the first, -0.874 ± 1 for the second.

FRIHIWYGY and TRAWITWAKVWRSQMNRGKA are within error of each other in amyloid nucleation score: 0.244 ± 0.17 for the first, 0.699 ± 0.54 for the second.

First: WLVSSVSCQPMSQSSFVGGL
Second: ALLFYGKMY
The amyloid nucleation score of the first is lower: 5.498 ± 0.05 for the first, 5.966 ± 0.052 for the second.

SEMDPNKAMRIGW and RTGAMPSR are within error of each other in amyloid nucleation score: 0.174 ± 0.21 for the first, 0.518 ± 0.51 for the second.

CFLWHAT and DGYLRYYSNLDG are within error of each other in amyloid nucleation score: 0.451 ± 0.41 for the first, 0.147 ± 1.1 for the second.

TGAFPDCLALMYKGAEEVER and IELFVSWKIGWVELRDVLLV are within error of each other in amyloid nucleation score: 0.011 ± 0.28 for the first, -0.055 ± 0.55 for the second.

First: RRLLGRLFLGTTSKLYVGDL
Second: FILQQAYGDWFTVDSNSCIM
The amyloid nucleation score of the first is higher: -0.147 ± 0.26 for the first, -1.64 ± 1.1 for the second.

Going from TVFPMREIEVLFDSIWYGFN to NNDGTPDPNM, the amyloid nucleation score falls from 1.71 ± 0.096 to -0.237 ± 0.63.

Going from SDSSRFVDKGSYRYKRREWE to NPRGWAVEMVDYHSTFLKPE, the amyloid nucleation score rises from -0.161 ± 0.65 to 5.64 ± 0.075.

EAWRNLYFGLSRRHRRYGSL and MIWLHIILMLMLVCRVLSE are within error of each other in amyloid nucleation score: 1.49 ± 0.18 for the first, 0.914 ± 0.46 for the second.

First: FQPFVDLLDVVHRELGSLTR
Second: EHIASLVMNAANSTNPVGQK
The amyloid nucleation score of the first is higher: 4.76 ± 0.067 for the first, -0.339 ± 0.76 for the second.

Going from HGVLVIVRAYVHVGEWVAQL to MYWLFR, the amyloid nucleation score falls from 1.96 ± 0.4 to 0.461 ± 0.25.

Going from GILYFLFVLSSVGDVCRLLV to SFYIRGYISFLGHRTW, the amyloid nucleation score rises from -0.709 ± 0.63 to 2.57 ± 0.17.

MLLFSLWGNYAGQVPWDRVG and LLNRSRSL are within error of each other in amyloid nucleation score: -0.513 ± 0.48 for the first, -0.723 ± 0.45 for the second.

RNSYALNINEM and LICGARYINFSGKGNY are within error of each other in amyloid nucleation score: -0.4 ± 0.38 for the first, 0.023 ± 0.29 for the second.

First: TGRISVSG
Second: SSTVCCHALVCSVSNFGFTV
The amyloid nucleation score of the first is lower: 0.14 ± 1 for the first, 9.783 ± 0.038 for the second.

First: TWDVNVLHVYLSMSSTTLHF
Second: FGLSITECGWVVLCMVWVPR
The amyloid nucleation score of the first is lower: -0.46 ± 0.45 for the first, 0.246 ± 0.17 for the second.

First: SACRMNWEVGGIGLSVPLCG
Second: REEGFS
The amyloid nucleation score of the first is higher: 0.421 ± 0.2 for the first, -1.29 ± 0.54 for the second.

Going from HIDVLMGCWMRIVTWSR to APRGLTFVQQSVSSIHLTAK, the amyloid nucleation score falls from 2.17 ± 0.29 to 0.345 ± 0.39.

Going from NAQYGRCSLWCPCPTVWTA to HGRRQGFAVTVGN, the amyloid nucleation score falls from 2.24 ± 0.25 to 0.355 ± 0.45.

First: KCRHFCRCETCTRYDPVHIL
Second: CMGFSSLFFQGWVVIDCLW
The amyloid nucleation score of the first is higher: 1 ± 0.53 for the first, -1.1 ± 0.76 for the second.

LDNYCFHAASYSQHNSSTGP and LPIRWVVVGEGSGVGRVWTW are within error of each other in amyloid nucleation score: 0.804 ± 0.46 for the first, 0.227 ± 0.3 for the second.

Going from FRVKRL to MHRLRYKATVFGLNNDDMPP, the amyloid nucleation score rises from -1.19 ± 1.1 to 0.841 ± 0.44.

DRGRSNWFRMMWIDGEHYSE and GLLPFGISAMNLRFHQGVAR are within error of each other in amyloid nucleation score: -0.492 ± 0.61 for the first, -0.359 ± 0.2 for the second.

First: VRQRNNWFTMVIVCVISVMA
Second: SYHRQRSNTFTAKLQCSRSW
The amyloid nucleation score of the first is higher: 3.52 ± 0.13 for the first, 0.307 ± 0.56 for the second.

Compared with IAKFTVMDFYGMVVAYSNCR, WFIILRLIYVYGTNCAVYMV is lower in amyloid nucleation score: 1.12 ± 0.42 for the first, -0.003 ± 0.42 for the second.

First: LRRSTKSSCGVRCWVIEMGS
Second: TFCEWMLWNTLCQVLSVPPY
The amyloid nucleation score of the first is lower: 0.138 ± 1.1 for the first, 6.423 ± 0.045 for the second.

Compared with LVDFNVLYNAGIIRLHTERY, IRGLGWSAPLRVIRVAPTYV is lower in amyloid nucleation score: 8.048 ± 0.07 for the first, 0.501 ± 0.57 for the second.

NARGHVNV and ALCIAGTLLYMANLISTLHG are within error of each other in amyloid nucleation score: 0.786 ± 0.44 for the first, 0.439 ± 0.36 for the second.

LSALCES and SDNTLCLTGDSAYN are within error of each other in amyloid nucleation score: 0.98 ± 0.53 for the first, 0.307 ± 0.2 for the second.

Compared with GMRADSYCVRVGWFLCQNIN, VSNRLRLSFKRVPHHAGYRP is lower in amyloid nucleation score: 7.002 ± 0.07 for the first, 2.76 ± 0.2 for the second.

Compared with GDYWGAGWRRA, TYHIYFVCLKSLWRFGEDCL is higher in amyloid nucleation score: 0.184 ± 0.49 for the first, 4.37 ± 0.055 for the second.

First: LLRVMLHISLVMC
Second: TPSDLVDINMDHAFCELCRR
The amyloid nucleation score of the first is lower: -1.34 ± 0.53 for the first, 0.413 ± 0.45 for the second.

IERRVTWFLTLARCKLPTGQ and VVSVCLLGHNDKVLSYAQLC are within error of each other in amyloid nucleation score: 0.796 ± 0.33 for the first, 0.071 ± 0.51 for the second.

Compared with LLHGSLWAQSMSLCWLNVTG, YGSESVGGSQRSGNLSWGTG is lower in amyloid nucleation score: 4.24 ± 0.088 for the first, 0.257 ± 0.64 for the second.

First: NIPAYTSMTFVLWTIL
Second: CYSILFSLKQIDRLLITLPR
The amyloid nucleation score of the first is higher: -0.153 ± 0.37 for the first, -1.04 ± 0.5 for the second.

Going from HSLCLVVLGFML to AFMCWSYRS, the amyloid nucleation score rises from 5.428 ± 0.04 to 6.393 ± 0.043.

RYGAMKLDTSKS and VSDRLTMFKSVRSVWMCWGQ are within error of each other in amyloid nucleation score: 0.11 ± 0.25 for the first, -0.146 ± 0.61 for the second.

Going from FITHKDYLFAGQ to GFVVMMFNLANRYSMQGDVG, the amyloid nucleation score rises from -1.16 ± 0.76 to 8.234 ± 0.052.

LSRSDAVRAFFRIMVLWKVV and VTVRAQY are within error of each other in amyloid nucleation score: -0.32 ± 0.63 for the first, -0.497 ± 0.45 for the second.

Going from VKNFYNSSINGLGLYMNMRF to MVFKRPHVWFDTTTFEFGMV, the amyloid nucleation score falls from 2.43 ± 0.068 to 0.732 ± 0.43.

First: FNLTICSLDVPTFL
Second: VMRMWRVSMRF
The amyloid nucleation score of the first is lower: -0.549 ± 1 for the first, 6.068 ± 0.032 for the second.

First: SNYHSGRVKGGDVGVYIS
Second: TSPSYVTSCYRFVKEIDHWK
The amyloid nucleation score of the first is higher: 3.57 ± 0.051 for the first, -1.29 ± 1.1 for the second.

Going from DRSRLGVGGVDVLWFLHSSK to KVGERISPELSGMFYGTLWY, the amyloid nucleation score falls from 5.328 ± 0.046 to -0.305 ± 0.74.

IQIFGVTYGSG and GSICAHGECF are within error of each other in amyloid nucleation score: -0.007 ± 0.79 for the first, 0.57 ± 0.81 for the second.

FKFYSRSAYSHHRFSIYCDR and VWDNIVPPQLISRRS are within error of each other in amyloid nucleation score: -1.22 ± 1.1 for the first, -0.813 ± 1.1 for the second.

QVRELVVLNSMGYPSSW and PHQKSAY are within error of each other in amyloid nucleation score: -0.188 ± 0.41 for the first, -0.284 ± 0.79 for the second.

YADLISSWVILGWFQRKTLF and GCSAQACYK are within error of each other in amyloid nucleation score: 0.228 ± 1 for the first, 1.03 ± 0.23 for the second.

First: KTCSDMWYAVRHSNHETSV
Second: HYAVTYLLGYSVGRVLYLWK
The amyloid nucleation score of the first is higher: 1.34 ± 0.52 for the first, -0.509 ± 0.79 for the second.

TGLKIG and NKMTF are within error of each other in amyloid nucleation score: 0.038 ± 0.29 for the first, 0.502 ± 0.44 for the second.

HGTIFTIYVC and PADPNCIFVIS are within error of each other in amyloid nucleation score: -0.875 ± 0.42 for the first, -1.25 ± 0.44 for the second.

TNTSFQRCGLWLTMGYGRYH and INIRLFFHDFTRMGSELIGY are within error of each other in amyloid nucleation score: -0.286 ± 0.3 for the first, 0.318 ± 0.8 for the second.

Going from IVQLVIAVTGMFLYWNYAFL to DLFVSGTVETFPANWGGMSR, the amyloid nucleation score rises from -0.461 ± 0.43 to 0.665 ± 0.42.

SLEGKSWGCSTSNSLKGDKG and TIHRVVWCLL are within error of each other in amyloid nucleation score: -0.06 ± 1.1 for the first, -0.645 ± 0.56 for the second.

First: FYSVHSCLYVLIHRVQHACC
Second: MNVYYHVGWNGCYSGVWRAE
The amyloid nucleation score of the first is lower: -0.235 ± 1.1 for the first, 4.818 ± 0.043 for the second.

CGHVTMHRWGMKNIMLVYAV and NAYVEIIIWASRDFMYCRHM are within error of each other in amyloid nucleation score: -0.889 ± 1 for the first, -0.262 ± 0.79 for the second.

TLLSNTSKLFLLHNYHQWVM and NYDRTIW are within error of each other in amyloid nucleation score: 0.062 ± 0.74 for the first, -1.01 ± 0.48 for the second.
